{"source": "paper PMC8359418", "about": "“Genome‐wide analysis of in vivo CcpA binding with and without its key co‐factor HPr in the major human pathogen group A Streptococcus” (Molecular Microbiology, 2020)", "key": {"[1]": {"target": "recombinant wild type GAS CcpA (catabolite control protein A) (group A Streptococcus (Streptococcus pyogenes))", "experiment": "SPR; CcpA (3,700 RU) or CcpAV301A (4,200 RU) immobilised on CM5 by amine coupling; HPr or HPrSer46~P injected, 2-fold dilutions 1.25 to 80 uM; PBS pH 7.4, 25°C; steady-state responses fitted to a one-site binding model; BIAcore T200"}, "[2]": {"target": "recombinant GAS CcpA with V301A change (group A Streptococcus (Streptococcus pyogenes))", "experiment": "SPR; CcpA (3,700 RU) or CcpAV301A (4,200 RU) immobilised on CM5 by amine coupling; HPr or HPrSer46~P injected, 2-fold dilutions 1.25 to 80 uM; PBS pH 7.4, 25°C; steady-state responses fitted to a one-site binding model; BIAcore T200"}, "[3]": {"target": "T1, CcpA endogenous in GAS strain MGAS2221 (Streptococcus pyogenes (endogenous in …, UniProt Q9A118 1-333))", "T1 construct": "Catabolite control protein A (CcpA) of Streptococcus pyogenes serotype emm1 strain MGAS2221 (gene content identical to MGAS5005); also called wild type CcpA; source: endogenous, lysate of cross-linked MGAS2221 cells", "experiment": "co-IP; GAS strains grown to mid-exponential phase in THY, cross-linked with EGS and formaldehyde, sonicated; precipitated with polyclonal anti-CcpA antibody, Western blot with anti-HPr antibody, quantified (Odyssey)", "settings": "partners not purified"}}}
{"molecule": "recombinant GAS HPr (histidine-containing protein), unphosphorylated (natural protein)", "values": [{"measurement": "Kd", "setting": "[1]", "value": 188, "unit": "µM"}]}
{"molecule": "recombinant GAS HPr phosphorylated at Ser46 (natural protein)", "values": [{"measurement": "Kd", "setting": "[2]", "value": 153, "unit": "µM"}, {"measurement": "Kd", "setting": "[1]", "value": 5.8, "unit": "µM"}]}
{"molecule": "HPr endogenous in GAS strains MGAS2221 and 2221-CcpA-V301A (natural protein, Phosphocarrier protein HPr (ptsH) of Streptococcus pyogenes serotype emm1 strain MGAS2221 and its isoallelic derivative; Detected with an anti-HPr antibody; the phosphorylation state of the co-precipitated HPr was not determined (by Phos-tag gels most cellular HPr was unphosphorylated); also called HPr~P; source: endogenous, lysates of cross-linked MGAS2221 and 2221-CcpA-V301A cells) MASKDFHIVAETGIHARPATLLVQTASKFASDITLDYKGKAVNLKSIMGVMSLGVGQGADVTISAEGADAEDAIAAIEETMTKEGLA", "values": [{"measurement": "fold more HPr co-immunoprecipitated than from strain 2221-CcpA-V301A", "setting": "[3]", "value": 10, "unit": "fold"}]}
